# Measured values taken from US20040146519A1.
# T1: HLA-DRB1*1501 (human)
# T1 chain 1: not shown
# T1 chain 2: not shown
# T2: HLA-DRB1*1302 (human)
# T2 chain 1: not shown
# T2 chain 2: not shown
# Experiments:
# HLA-A*0206 (human) [1] = test: competition with 125I probe peptide for purified HLA; details: remark: other sources report otherwise
# HLA-A*3101 (human) = test: as above; details: remark: other sources report otherwise
# HLA-B*5401 (human) = test: inhibition of 125I probe peptide, purified HLA; details: remark: other sources report otherwise
# HLA-B*5101 (human) = test: inhibition of 125I probe peptide, purified HLA; details: remark: other sources report otherwise
# HLA-B*0702 (human) = test: inhibition of 125I probe peptide, purified HLA; details: remark: other sources report otherwise
# HLA-B*5301 (human) = test: inhibition of 125I probe peptide, purified HLA; details: remark: other sources report otherwise
# HLA-A*0206 (human) [2] = test: inhibition of 125I probe peptide, purified HLA; details: remark: other sources report otherwise
# HLA-DRB1*1501 (human) = biological target: T1, HLA-DRB1*1501 (human); test: competition with 125I probe peptide, purified HLA; details: remark: other sources report otherwise
# HLA-DRB1*1302 (human) = biological target: T2, HLA-DRB1*1302 (human); test: competition with 125I probe peptide, purified HLA; details: remark: other sources report otherwise
# HLA-A*0201 (human) = test: competitive inhibition of 125I probe peptide, purified HLA
binder,measurement,setting,value
YLSGANLNV [CEA.605V9],IC50,HLA-A*0206 (human) [1],80 nM
RTLTLLSVTR [CEA.376],IC50,HLA-A*3101 (human),6.2 nM
RVLTLFNVTR [CEA.554.V2],IC50,HLA-A*3101 (human),9 nM
RTLTLFNVTR [CEA.554],IC50,HLA-A*3101 (human),5 nM
"IPWQRLLLTA [CEA.13, 10 AA]",IC50,HLA-B*5401 (human),3.2 nM
IPWQRLLLTI [CEA.13.I10],IC50,HLA-B*5101 (human),19 nM
same,IC50,HLA-B*0702 (human),39 nM
same,IC50,HLA-B*5401 (human),270 nM
LPQHLFGYSI [CEA.58.I10],IC50,HLA-B*5301 (human),930 nM
same,IC50,HLA-B*0702 (human),212 nM
YPNASLLI [CEA.102],IC50,HLA-B*5301 (human),40 nM
same,IC50,HLA-B*5401 (human),137 nM
YLSGANLNV [CEA.605.V9],IC50,HLA-A*0206 (human) [2],80 nM
RWCIPWQRLLLTASL [CEA.10],IC50,HLA-DRB1*1501 (human),827 nM
same,IC50,HLA-DRB1*1302 (human),318 nM
"SLLTFWNPPT [CEA peptide, position 23, 10 amino acids]",relative binding ratio (IC50 standard/IC50 peptide),HLA-A*0201 (human),0.0022
